Reference: paper PMC10741561

How the values were obtained:
[1] = target: Phos-Sx4-GST (C-terminally GST-tagged Sx4 cytosolic domain harbouring two mutations Y115E and Y251E) (UniProt P70452); assay: ITC; MicroCal VP-ITC; syntaxins (WT-Sx4 298 µM, Phos-Sx4 308.25 µM) titrated with SNAP23 (64 µM); nonlinear least squares fit
[2] = target: WT-Sx4-GST (C-terminally GST-tagged Syntaxin 4 cytosolic domain) (UniProt P70452); assay: as above
[3] = target: m4 + m5 (ternary SNARE complex with His-SNAP23 and GST-VAMP2); assay: in vitro SNARE complex assembly assay (SDS-PAGE, anti-Sx4 immunoblot, ImageJ quantification); details: 5 µM Sx4-GST variant with equimolar GST-VAMP2 and His-SNAP23, 4 °C, 20 min; parent: est. 1.0; read off a plot

Kd [1] [µM]	Kd [2] [µM]	ratio to parent [3]	Substance
1.22	5.6	–	His-SNAP23 (N-terminally His-tagged SNAP23) (from UniProt O09044 1-210) (natural protein)
–	–	1.5	WT-Sx4-GST (C-terminally GST-tagged Syntaxin 4 cytosolic domain) (from UniProt P70452) L173A; E174A
